± gives the standard deviation of the averaged measurements.
Key:
[1] = system: Saccharomyces cerevisiae; test: protein stability index of tFT-peptide fusion (C-terminal peptide) (PSI (0-1 scale)); higher = more stable (slower turnover); settings: genetic background: wild type; temperature: 30 C
[2] = system: Saccharomyces cerevisiae; test: as above
Procedure: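 MPS profiling in S. cerevisiae of the tFT-X12 degron library: putative degron peptides plus stable controls, 12 aa, fused to the C-terminus of a sfGFP-mCherry timer. Cells are FACS-sorted into 8 mCherry/sfGFP bins and deep-sequenced. PSI runs from 0 (unstable) to 1 (stable). Backgrounds are wild type, das1Δ and doa10Δ at 30 °C, and wild type, das1Δ, cdc34-1 and cdc53-1 at 37 °C; 2-3 technical replicates each.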

[3] = genetic background: cdc34-1, temperature: 37 C
[4] = genetic background: cdc53-1, temperature: 37 C
[5] = genetic background: das1 deletion, temperature: 30 C
[6] = genetic background: das1 deletion, temperature: 37 C
[7] = genetic background: doa10 deletion, temperature: 30 C
[8] = genetic background: wild type, temperature: 30 C
[9] = genetic background: wild type, temperature: 37 C
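Further: PSI is a weighted mean of sequencing reads over stability bins, variants kept only with over 10 reads, mCherry proximal and sfGFP distal, peptide attached via GGGS linker.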

Sequence | protein stability index [1] | protein stability index [2, 3] | protein stability index [2, 4] | protein stability index [2, 5] | protein stability index [2, 6] | protein stability index [2, 7] | protein stability index [2, 8] | protein stability index [2, 9]
LVCLVASCVRWL | 0.357 ± 0.019 | 0.453 ± 0.022 | 0.533 ± 0.0085 | 0.359 ± 0.037 | 0.5664 ± 0.0041 | 0.237 ± 0.0034 | 0.272 ± 0.027 | 0.4608 ± 0.0029
LVGVLLAVWSVV | 0.308 ± 0.017 | 0.2387 ± 0.00038 | 0.294 ± 0.039 | 0.249 ± 0.039 | 0.412 ± 0.0087 | 0.168 ± 0.0025 | 0.197 ± 0.019 | 0.338 ± 0.045
LVLGLYGVWLVV | 0.345 ± 0.015 | 0.262 ± 0.005 | 0.179 ± 0.022 | 0.254 ± 0.026 | 0.4104 ± 0.0027 | 0.355 ± 0.015 | 0.243 ± 0.024 | 0.3561 ± 0.0035
LVMYRSALIRGH | 0.462 ± 0.05 | 0.526 ± 0.039 | 0.529 ± 0.042 | 0.445 ± 0.0092 | 0.5693 ± 0.0033 | 0.3624 ± 0.00052 | 0.396 ± 0.03 | 0.525 ± 0.01
LVSWAWIWIFVF | 0.226 ± 0.054 | 0.251 ± 0.057 | 0.354 ± 0.022 | 0.253 ± 0.039 | 0.417 ± 0.0085 | 0.171 ± 0.0065 | 0.194 ± 0.022 | 0.32239 ± 2.4e-05
LVSYHKMAISSF | 0.47 ± 0.051 | 0.595 ± 0.017 | 0.58 ± 0.019 | 0.436 ± 0.022 | 0.626 ± 0.047 | 0.421 ± 0.0095 | 0.44 ± 0.022 | 0.571 ± 0.0095
LWWTRVILYGYI | 0.387 ± 0.036 | 0.51 ± 0.0061 | 0.571 ± 0.021 | 0.456 ± 0.027 | 0.5496 ± 0.0039 | 0.34 ± 0.0087 | 0.353 ± 0.016 | 0.445 ± 0.013
LYCGLIFFLRGV | 0.516 ± 0.084 | 0.6263 ± 0.0019 | 0.6389 ± 0.0017 | 0.516 ± 0.018 | 0.6475 ± 0.0026 | 0.468 ± 0.032 | 0.472 ± 0.029 | 0.612 ± 0.0081
LYFLLGSLVFVF | 0.392 ± 0.0081 | 0.366 ± 0.0083 | 0.417 ± 0.015 | 0.273 ± 0.035 | 0.506 ± 0.014 | 0.244 ± 0.0021 | 0.275 ± 0.019 | 0.461 ± 0.031
MALAVRVVTCGA | 0.375 ± 0.076 | 0.185 ± 0.014 | 0.297 ± 0.075 | 0.228 ± 0.036 | 0.363 ± 0.014 | 0.191 ± 0.0047 | 0.223 ± 0.031 | 0.313 ± 0.015
MIQPRLANIIIS | 0.753 ± 0.018 | 0.8517 ± 0.0056 | 0.864 ± 0.017 | 0.683 ± 0.018 | 0.833 ± 0.015 | 0.713 ± 0.024 | 0.6987 ± 0.0051 | 0.779 ± 0.017
MLVLFCLCYILG | 0.341 ± 0.0068 | 0.2462 ± 0.0023 | 0.34 ± 0.013 | 0.231 ± 0.025 | 0.377 ± 0.0043 | 0.217 ± 0.013 | 0.235 ± 0.037 | 0.338 ± 0.03
MSHVCICRRLML | 0.498 ± 0.011 | 0.68 ± 0.037 | 0.743 ± 0.016 | 0.609 ± 0.025 | 0.712 ± 0.032 | 0.404 ± 0.028 | 0.427 ± 0.0081 | 0.646 ± 0.048
NFVVYHVAIRVP | 0.243 ± 0.037 | 0.073 ± 0.0071 | 0.134 ± 0.0046 | 0.17 ± 0.017 | 0.2466 ± 0.0024 | 0.139 ± 0.0025 | 0.155 ± 0.019 | 0.198 ± 0.02
PAPQAVRIFSLY | 0.428 ± 0.046 | 0.62 ± 0.089 | 0.74 ± 0.026 | 0.653 ± 0.044 | 0.744 ± 0.026 | 0.179 ± 0.01 | 0.183 ± 0.022 | 0.39 ± 0.019
PASYPPFIYLSI | 0.434 ± 0.077 | 0.306 ± 0.012 | 0.288 ± 0.018 | 0.419 ± 0.032 | 0.496 ± 0.01 | 0.654 ± 0.018 | 0.418 ± 0.026 | 0.4461 ± 0.00056
PCFACIAFVLFP | 0.4827 ± 0.004 | 0.451 ± 0.013 | 0.413 ± 0.093 | 0.356 ± 0.038 | 0.509 ± 0.032 | 0.334 ± 0.013 | 0.343 ± 0.014 | 0.4507 ± 0.0011
PLFLRPLSVPVL | 0.425 ± 0.0092 | 0.421 ± 0.0067 | 0.441 ± 0.01 | 0.333 ± 0.03 | 0.457 ± 0.0058 | 0.305 ± 0.0096 | 0.328 ± 0.024 | 0.4324 ± 0.0022
PLLPCRPILFLL | 0.197 ± 0.043 | 0.559 ± 0.072 | 0.627 ± 0.027 | 0.558 ± 0.028 | 0.6615 ± 0.0026 | 0.125 ± 0.0042 | 0.117 ± 0.014 | 0.182 ± 0.038
PLLPLPRFPLFA | 0.41 ± 0.021 | 0.547 ± 0.018 | 0.558 ± 0.038 | 0.411 ± 0.03 | 0.595 ± 0.021 | 0.332 ± 0.009 | 0.367 ± 0.013 | 0.529 ± 0.019

Sequence | protein stability index [1] | protein stability index [2, 3] | protein stability index [2, 4] | protein stability index [2, 5] | protein stability index [2, 6] | protein stability index [2, 7] | protein stability index [2, 8] | protein stability index [2, 9]
PLSDPLRVILIM | 0.443 ± 0.063 | 0.55 ± 0.016 | 0.633 ± 0.06 | 0.501 ± 0.0089 | 0.627 ± 0.014 | 0.188 ± 0.0023 | 0.22 ± 0.023 | 0.328 ± 0.017
PPPPTPRPLLPP | 0.449 ± 0.029 | 0.662 ± 0.011 | 0.7253 ± 0.0031 | 0.677 ± 0.034 | 0.73 ± 0.021 | 0.666 ± 0.039 | 0.667 ± 0.011 | 0.697 ± 0.012
PPPRLPLLSCSQ | 0.408 ± 0.013 | 0.661 ± 0.025 | 0.679 ± 0.0094 | 0.669 ± 0.016 | 0.6752 ± 0.00072 | 0.632 ± 0.024 | 0.638 ± 0.034 | 0.66 ± 0.022
PPPSRRLTLRLA | 0.292 ± 0.041 | 0.612 ± 0.035 | 0.6993 ± 0.0065 | 0.681 ± 0.02 | 0.698 ± 0.009 | 0.179 ± 0.017 | 0.21 ± 0.02 | 0.397 ± 0.015
PPWRPVALLLLA | 0.156 ± 0.013 | 0.206 ± 0.029 | 0.259 ± 0.022 | 0.247 ± 0.022 | 0.384 ± 0.007 | 0.0824 ± 0.02 | 0.0841 ± 0.018 | 0.117 ± 0.077
PRFCVYARFHNT | 0.387 ± 0.022 | 0.713 ± 0.016 | 0.748 ± 0.01 | 0.649 ± 0.036 | 0.722 ± 0.054 | 0.298 ± 0.023 | 0.375 ± 0.033 | 0.567 ± 0.02
PRFWFYLSYSVH | 0.431 ± 0.032 | 0.429 ± 0.044 | 0.514 ± 0.012 | 0.373 ± 0.044 | 0.533 ± 0.015 | 0.3014 ± 0.0016 | 0.344 ± 0.02 | 0.493 ± 0.01
PSPPPPLPPHPS | 0.721 ± 0.025 | 0.688 ± 0.039 | 0.7321 ± 0.0069 | 0.69 ± 0.031 | 0.72 ± 0.01 | 0.685 ± 0.019 | 0.667 ± 0.013 | 0.716 ± 0.032
PSPPPPRPASPS | 0.439 ± 0.023 | 0.7 ± 0.052 | 0.7492 ± 0.0073 | 0.651 ± 0.0084 | 0.72829 ± 0.00037 | 0.667 ± 0.048 | 0.652 ± 0.015 | 0.719 ± 0.0084
PSTLVITVVITK | 0.37 ± 0.038 | 0.247 ± 0.019 | 0.29 ± 0.0099 | 0.279 ± 0.029 | 0.4255 ± 0.0021 | 0.23 ± 0.023 | 0.243 ± 0.03 | 0.389 ± 0.02
PYHAPRPPFSLF | 0.149 ± 0.0084 | 0.511 ± 0.05 | 0.68 ± 0.0087 | 0.667 ± 0.021 | 0.7543 ± 0.0025 | 0.0708 ± 0.013 | 0.0545 ± 0.017 | 0.111 ± 0.04
QARQLEMYMVVF | 0.432 ± 0.0045 | 0.638 ± 0.066 | 0.532 ± 0.12 | 0.403 ± 0.041 | 0.579 ± 0.02 | 0.379 ± 0.015 | 0.418 ± 0.013 | 0.544 ± 0.0069
QCKHIVRKIKLH | 0.186 ± 0.025 | 0.426 ± 0.089 | 0.61 ± 0.11 | 0.617 ± 0.014 | 0.737 ± 0.018 | 0.117 ± 0.016 | 0.0952 ± 0.034 | 0.147 ± 0.014
QDFFYCLLVATS | 0.317 ± 0.029 | 0.155 ± 0.0058 | 0.276 ± 0.015 | 0.21 ± 0.038 | 0.3605 ± 0.003 | 0.174 ± 0.0022 | 0.205 ± 0.03 | 0.305 ± 0.0038
QGILVGCCYVLC | 0.386 ± 0.022 | 0.426 ± 0.024 | 0.4409 ± 0.00073 | 0.313 ± 0.021 | 0.5035 ± 0.00077 | 0.2731 ± 0.0018 | 0.3 ± 0.023 | 0.4657 ± 0.0015
QLGGKVGNCHVV | 0.75 ± 0.021 | 0.683 ± 0.046 | 0.7507 ± 0.0047 | 0.6644 ± 0.0051 | 0.732 ± 0.025 | 0.668 ± 0.05 | 0.652 ± 0.009 | 0.715 ± 0.034
QVGRPRVGFSRR | 0.764 ± 0.014 | 0.704 ± 0.035 | 0.7483 ± 1.4e-05 | 0.652 ± 0.0075 | 0.75 ± 0.016 | 0.657 ± 0.016 | 0.66 ± 0.02 | 0.7302 ± 0.0063
RAFFLLYCTLWA | 0.206 ± 0.04 | 0.0997 ± 0.0085 | 0.204 ± 0.039 | 0.163 ± 0.027 | 0.266 ± 0.012 | 0.132 ± 0.016 | 0.161 ± 0.025 | 0.24 ± 0.0077
RALYLLALVGVS | 0.362 ± 0.11 | 0.234 ± 0.0075 | 0.254 ± 0.02 | 0.223 ± 0.034 | 0.371 ± 0.0042 | 0.169 ± 0.0096 | 0.214 ± 0.024 | 0.3484 ± 0.0029

From the supplement of paper PMC10724198
